pKd: −log10 of the molar value.
How the values were obtained:
HLA-A*01:01 [1] = assay: IEDB peptide-MHC binding, purified MHC/competitive/radioactivity; filed as Kd, often an IC50 or EC50 that approximates it; ≥ and ≤ were set here for values at or beyond the usual limits of such assays
HLA-A*26:01 [2] = assay: as above
HLA-A*29:02 = assay: as above
HLA-A*30:01 = assay: as above
HLA-A*30:02 = assay: as above
HLA-A*32:01 = assay: as above
HLA-B*08:01 [3] = assay: as above
HLA-A*02:06 = assay: as above
HLA-B*40:01 [4] = assay: as above
HLA-B*44:02 [5] = assay: as above
HLA-B*44:03 = assay: as above
HLA-A*26:01 [6] = assay: IEDB peptide-MHC binding, purified MHC/competitive/fluorescence; filed as Kd, often an IC50 or EC50 that approximates it; ≥ and ≤ were set here for values at or beyond the usual limits of such assays
HLA-B*51:01 = assay: IEDB peptide-MHC binding, purified MHC/competitive/radioactivity; filed as Kd, often an IC50 or EC50 that approximates it; ≥ and ≤ were set here for values at or beyond the usual limits of such assays
HLA-B*53:01 = assay: as above; details: source organism: Dengue virus 2 Jamaica/1409/1983
HLA-A*01:01 [7] = assay: IEDB peptide-MHC binding, purified MHC/direct/fluorescence; filed as Kd, often an IC50 or EC50 that approximates it; ≥ and ≤ were set here for values at or beyond the usual limits of such assays; details: source organism: Coxiella burnetii
HLA-A*02:01 = assay: as above; details: source organism: Coxiella burnetii
HLA-A*03:01 = assay: as above; details: source organism: Coxiella burnetii
HLA-A*11:01 = assay: as above; details: source organism: Coxiella burnetii
HLA-A*26:01 [8] = assay: as above; details: source organism: Coxiella burnetii
HLA-A*31:01 = assay: as above; details: source organism: Coxiella burnetii
HLA-A*69:01 = assay: as above; details: source organism: Coxiella burnetii
HLA-B*07:02 [9] = assay: as above; details: source organism: Coxiella burnetii
HLA-B*08:01 [10] = assay: as above; details: source organism: Coxiella burnetii
HLA-B*15:01 = assay: as above; details: source organism: Coxiella burnetii
HLA-B*27:05 = assay: as above; details: source organism: Coxiella burnetii
HLA-B*40:01 [11] = assay: as above; details: source organism: Coxiella burnetii
HLA-B*44:02 [12] = assay: as above; details: source organism: Coxiella burnetii
HLA-B*58:01 = assay: as above; details: source organism: Coxiella burnetii
HLA-B*07:02 [13] = assay: IEDB peptide-MHC binding, purified MHC/competitive/radioactivity; filed as Kd, often an IC50 or EC50 that approximates it; ≥ and ≤ were set here for values at or beyond the usual limits of such assays
HLA-B*35:01 = assay: as above
HLA-B*18:01 = assay: IEDB peptide-MHC binding, purified MHC/direct/fluorescence; filed as Kd, often an IC50 or EC50 that approximates it; ≥ and ≤ were set here for values at or beyond the usual limits of such assays; details: source organism: Bacillus cereus H3081.97
HLA-A*02:02 = assay: IEDB peptide-MHC binding, purified MHC/competitive/radioactivity; filed as Kd, often an IC50 or EC50 that approximates it; ≥ and ≤ were set here for values at or beyond the usual limits of such assays; details: source organism: Vaccinia virus WR
HLA-A*02:03 = assay: as above; details: source organism: Vaccinia virus WR
[14] = source organism: Mammarenavirus brazilense
[15] = source organism: Vaccinia virus WR
[16] = source organism: Dengue virus 4 Philippines/H241/1956
[17] = source organism: Dengue virus 1 Brazil/97-11/1997
[18] = source organism: Dengue virus 3 Martinique/1243/1999
[19] = source organism: Dengue virus 2 Jamaica/1409/1983
[20] = source organism: Escherichia coli
[21] = source organism: Lymphocytic choriomeningitis virus (strain WE)
[22] = source organism: Mammarenavirus guanaritoense
[23] = source organism: Dengue virus 2 Peru/IQT2913/1996

Work on LINERDYSRY yielded a pKd (HLA-A*01:01 [1]; [14]) of 5.99, a pKd (HLA-A*26:01 [2]; [14]) of 5.71 and a pKd (HLA-A*29:02; [14]) of 4.78. The pKd (HLA-A*30:01; [14]) was no more than 4.15, the pKd (HLA-A*30:02; [14]) was 6.20 and the pKd (HLA-A*32:01; [14]) was no more than 4.16.

Sequence NLAERFCTE has a pKd (HLA-B*08:01 [3]; [15]) of 5.72.

With LLLVTHYAI the pKd (HLA-A*32:01; source organism: Dengue virus 3 Singapore/8120/1995) was 7.38.

Work on LSNGASLTI yielded a pKd (HLA-A*32:01; [15]) of 7.13.

For KTKRILPSI, the pKd (HLA-A*30:01; [16]) was 8.17 and the pKd (HLA-A*32:01; [16]) was 6.90.

With MLKRARNRV the pKd (HLA-B*08:01 [3]; [17]) was 7.60.

Sequence FTLTVAWRTA has a pKd (HLA-A*02:06; [18]) of 6.42 and a pKd (HLA-A*32:01; [18]) of 5.03.

For TAIANQAAIL, the pKd (HLA-B*08:01 [3]; [17]) was 6.37.

AEISGSSPI gave a pKd (HLA-B*40:01 [4]; [19]) of 9.18, a pKd (HLA-B*44:02 [5]; [19]) of 7.84 and a pKd (HLA-B*44:03; [19]) of 7.59.

Sequence GTFHTMWHVT has a pKd (HLA-A*32:01; [19]) of 4.87.

EAAGIAACL was tested, and the pKd (HLA-A*26:01 [6]; source organism: Escherichia coli F11) was 7.84.

Work on TLKRRSWPLN yielded a pKd (HLA-A*30:01; [18]) of 5.26 and a pKd (HLA-A*32:01; [18]) of 4.72.

EEIAVQNWL gave a pKd (HLA-B*40:01 [4]; [19]) of 7.83, a pKd (HLA-B*44:02 [5]; [19]) of 8.16 and a pKd (HLA-B*44:03; [19]) of 7.97.

For KPTLDFELI, the pKd (HLA-B*51:01; [19]) was no more than 4.51 and the pKd (HLA-B*53:01) was 6.55.

EEMPLVWDL showed a pKd (HLA-A*01:01 [7]) of no more than 4.70, a pKd (HLA-A*02:01) of no more than 4.70 and a pKd (HLA-A*03:01) of no more than 4.70. For the same sequence, the pKd (HLA-A*11:01) was no more than 4.70, the pKd (HLA-A*26:01 [8]) was no more than 4.70 and the pKd (HLA-A*31:01) was no more than 4.70. The pKd (HLA-A*69:01) was no more than 4.70, the pKd (HLA-B*07:02 [9]) was no more than 4.70 and the pKd (HLA-B*08:01 [10]) was no more than 4.70. It also gave a pKd (HLA-B*15:01) of no more than 4.70, a pKd (HLA-B*27:05) of no more than 4.70 and a pKd (HLA-B*40:01 [11]) of 7.72. It also gave a pKd (HLA-B*44:02 [12]) of 5.03 and a pKd (HLA-B*58:01) of no more than 4.70.

In the case of FRRLTSREVL, the pKd (HLA-B*08:01 [3]; [17]) was 6.98.

Sequence RLNQPVNNI has a pKd (HLA-A*32:01; [15]) of 7.60.

Work on AETQNSSFI yielded a pKd (HLA-B*40:01 [4]; [18]) of 6.85, a pKd (HLA-B*44:02 [5]; [18]) of 8.57 and a pKd (HLA-B*44:03; [18]) of 6.91.

In the case of ELILDRGYY, the pKd (HLA-A*26:01 [6]; source organism: Bacillus cereus G9241) was 6.68.

WMIRILIGFL showed a pKd (HLA-B*08:01 [3]; source organism: Dengue virus 4 Dominica/814669/1981) of 6.77.

For AEMEEALKGL, the pKd (HLA-B*40:01 [4]; [18]) was 7.81, the pKd (HLA-B*44:02 [5]; [18]) was 7.59 and the pKd (HLA-B*44:03; [18]) was 7.25.

For DTAKAFAYL, the pKd (HLA-A*26:01 [6]; [20]) was 6.73.

Work on RSTSLSVSL yielded a pKd (HLA-A*32:01; [19]) of 7.00.

With TRKVRSNAA the pKd (HLA-B*08:01 [3]; [19]) was 8.20.

For KEISNMLSII, the pKd (HLA-B*40:01 [4]; [18]) was 7.28, the pKd (HLA-B*44:02 [5]; [18]) was 7.53 and the pKd (HLA-B*44:03; [18]) was 6.57.

Sequence GEGLHKLGY has a pKd (HLA-B*44:02 [5]; [19]) of 6.92 and a pKd (HLA-B*44:03; [19]) of 6.55.

With MTKEASREY the pKd (HLA-A*01:01 [1]; [21]) was 5.52, the pKd (HLA-A*26:01 [2]; [21]) was 7.75 and the pKd (HLA-A*29:02; [21]) was 6.21. For the same sequence, the pKd (HLA-A*30:01; [21]) was 6.97, the pKd (HLA-A*30:02; [21]) was 7.17 and the pKd (HLA-A*32:01; [21]) was no more than 4.25.

Sequence CINVRRCAL has a pKd (HLA-B*08:01 [3]; [15]) of 8.16.

With AAGRKSLTL the pKd (HLA-B*08:01 [3]; [19]) was 6.68.

In the case of WMVHRQWFFD, the pKd (HLA-A*32:01; [18]) was 5.30.

ESALNISGY was tested, and the pKd (HLA-A*01:01 [1]; [22]) was 7.43, the pKd (HLA-A*26:01 [2]; [22]) was 6.93 and the pKd (HLA-A*29:02; [22]) was no more than 4.45. It also gave a pKd (HLA-A*30:01; [22]) of no more than 4.17, a pKd (HLA-A*30:02; [22]) of 6.13 and a pKd (HLA-A*32:01; [22]) of no more than 4.11.

Sequence IIWKGIYTY has a pKd (HLA-A*32:01; [15]) of 8.48.

MEAQLIRQM showed a pKd (HLA-B*40:01 [4]; [19]) of 6.10, a pKd (HLA-B*44:02 [5]; [19]) of 7.95 and a pKd (HLA-B*44:03; [19]) of 6.92.

Sequence MPIRYQTTAV has a pKd (HLA-B*07:02 [13]; [17]) of 7.95, a pKd (HLA-B*35:01; [17]) of 7.32 and a pKd (HLA-B*51:01; [17]) of 6.46.

SGMRRQEQI was tested, and the pKd (HLA-B*08:01 [3]; [15]) was 7.78.

GESSPNPTV gave a pKd (HLA-B*40:01 [4]; [23]) of 7.81 and a pKd (HLA-B*44:02 [5]; [23]) of 6.49.

Work on LINLTTIAY yielded a pKd (HLA-A*01:01 [1]; [14]) of 6.24, a pKd (HLA-A*26:01 [2]; [14]) of 4.91 and a pKd (HLA-A*29:02; [14]) of 6.46. It also gave a pKd (HLA-A*30:01; [14]) of 5.03, a pKd (HLA-A*30:02; [14]) of 5.84 and a pKd (HLA-A*32:01; [14]) of 5.05.

Sequence NEMILMKMK has a pKd (HLA-B*44:02 [5]; [16]) of 6.40 and a pKd (HLA-B*44:03; [16]) of 5.54.

In the case of NNRVLFNNF, the pKd (HLA-B*08:01 [3]; [15]) was 6.11.

VATTFVTPM showed a pKd (HLA-B*35:01; [19]) of 6.69.

IGVIITWIGM gave a pKd (HLA-A*32:01; [19]) of no more than 4.23.

Sequence FPVQFFIVF has a pKd (HLA-B*18:01) of no more than 4.70.

In the case of LPVWLAYRVA, the pKd (HLA-B*35:01; [19]) was 6.51 and the pKd (HLA-B*51:01; [19]) was 5.30.

With DVLRQYVLM the pKd (HLA-A*26:01 [6]; [20]) was 5.67.

In the case of NNRYRFAFL, the pKd (HLA-B*08:01 [3]; [15]) was 7.51.

YRPLHFQYV gave a pKd (HLA-B*08:01 [3]; [15]) of 6.61.

For ILRKIFYSV, the pKd (HLA-B*08:01 [3]; [15]) was 9.99.

STVGASGVY was tested, and the pKd (HLA-A*26:01 [6]; source organism: Orthohantavirus sinnombreense) was no less than 9.00.

HPGFTIMAAI showed a pKd (HLA-B*07:02 [13]; [19]) of 7.53, a pKd (HLA-B*51:01; [19]) of 5.24 and a pKd (HLA-B*53:01) of 7.18.

With GFMRFFQLL the pKd (HLA-B*08:01 [3]; [15]) was 8.62.

In the case of WIEDNPWMED, the pKd (HLA-A*32:01; [18]) was 5.38.

With IVYGRSNAI the pKd (HLA-A*02:02) was 7.83, the pKd (HLA-A*02:03) was 7.80 and the pKd (HLA-A*02:06; [15]) was 7.52. It also gave a pKd (HLA-A*32:01; [15]) of 8.50.

NDMISYGGGW showed a pKd (HLA-B*44:02 [5]; [16]) of 8.21 and a pKd (HLA-B*44:03; [16]) of 7.15.

For DEDCAHWKEA, the pKd (HLA-A*32:01; [19]) was no more than 4.16.

In the case of LLQMEDKAWL, the pKd (HLA-B*08:01 [3]; [19]) was 5.70.

In the case of FIRSTMPLVM, the pKd (HLA-B*35:01; [16]) was 5.53.
